For two substances, cell viability on Day 6 of B cells activated by αCD40 and maximum surface density of CD40L on anti-HA microbeads (molecules µm^-2) results are on record in patent publication US20190249141A1.

The target in test [1] is CD40 on mouse splenic B cells (mouse) (UniProt P27512). The test is described as follows: cell-based or functional assay.
In test [2] the target is recombinant murine CD40L (M112-L260) with N-terminal HA tag (murine). The test is described as follows: loading of HA-tagged CD40L on anti-HA antibody microbeads; protein in the supernatant (A280) measured before and after incubation.

UniProt P27512, sequence (P27512 20-289): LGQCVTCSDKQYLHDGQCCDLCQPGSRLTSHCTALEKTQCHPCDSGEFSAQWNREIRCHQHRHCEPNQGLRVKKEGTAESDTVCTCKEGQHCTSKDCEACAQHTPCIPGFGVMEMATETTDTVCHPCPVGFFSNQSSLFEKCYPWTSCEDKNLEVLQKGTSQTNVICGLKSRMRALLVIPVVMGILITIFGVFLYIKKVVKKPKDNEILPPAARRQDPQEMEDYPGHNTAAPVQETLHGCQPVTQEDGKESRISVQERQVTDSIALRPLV

In test [1], “anti-CD40 antibody (clone 1C10, eBioscience)” registered a cell viability on Day 6 of B cells activated by αCD40 of 2 to 5%.

On to “anti-HA peptide antibody covalently attached to superparamagnetic microbeads (Pierce)”, for which the maximum surface density of CD40L on anti-HA microbeads (molecules µm^-2) in test [2] was 27000.
